pKd: −log10 of the molar value.

This data set concerns the target T1, MutY adenine DNA glycosylase (UniProt P17802).
T1 sequence: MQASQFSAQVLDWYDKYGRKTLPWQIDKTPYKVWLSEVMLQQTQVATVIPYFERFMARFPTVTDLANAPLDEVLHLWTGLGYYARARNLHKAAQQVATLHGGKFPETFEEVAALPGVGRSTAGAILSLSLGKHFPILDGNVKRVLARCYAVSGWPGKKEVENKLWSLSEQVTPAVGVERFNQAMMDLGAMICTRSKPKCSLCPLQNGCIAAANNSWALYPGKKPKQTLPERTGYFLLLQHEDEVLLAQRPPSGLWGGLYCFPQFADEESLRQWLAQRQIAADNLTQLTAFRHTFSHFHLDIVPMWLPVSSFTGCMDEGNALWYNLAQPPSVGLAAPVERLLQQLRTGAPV
Briefly: EMSA. The note with it: pyrrolidine residue lacking a base (inhibitor 1); at least 20 times higher than 2a. Background: Mobility shift assays separate free from complexed probe on a gel.

For orientation: pKd means −log10 of the Kd, conventionally taken in molar units. Read a high pKd as a small Kd. pyrrolidine (inhibitor 1) abasic duplex: the pKd is 10.19.

These data come from patent publication US6369237.
